Several values for one entry are separate records, joined by “and”; a condition that tells them apart may be missing. Equal values may be shown once.
T1: HPV45型衣壳蛋白L1病毒样颗粒(VLP)抗原 (HPV 45型) (UniProt P36741)
T1 sequence: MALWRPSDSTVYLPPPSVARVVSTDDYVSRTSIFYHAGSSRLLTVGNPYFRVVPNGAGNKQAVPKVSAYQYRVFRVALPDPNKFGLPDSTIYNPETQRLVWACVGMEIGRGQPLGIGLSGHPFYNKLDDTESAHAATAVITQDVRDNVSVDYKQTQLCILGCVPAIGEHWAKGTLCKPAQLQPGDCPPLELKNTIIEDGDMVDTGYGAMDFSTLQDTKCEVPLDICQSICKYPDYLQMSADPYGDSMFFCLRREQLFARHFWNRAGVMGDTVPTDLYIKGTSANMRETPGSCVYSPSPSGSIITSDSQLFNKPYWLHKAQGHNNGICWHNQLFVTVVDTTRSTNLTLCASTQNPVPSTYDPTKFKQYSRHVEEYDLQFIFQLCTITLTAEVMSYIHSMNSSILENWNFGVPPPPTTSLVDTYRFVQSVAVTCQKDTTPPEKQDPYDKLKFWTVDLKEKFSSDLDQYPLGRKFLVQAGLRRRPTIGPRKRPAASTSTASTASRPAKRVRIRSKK


Assays:
[1] = molecular target: T1, HPV45型衣壳蛋白L1病毒样颗粒(VLP)抗原 (HPV 45型); experiment: sandwich ELISA, rabbit pAb R163 capture 1:500, mAb 1:20000; antigen 13.3 ug/ml, 2.5-fold series, step 7
[2] = molecular target: T1, HPV45型衣壳蛋白L1病毒样颗粒(VLP)抗原 (HPV 45型); experiment: sandwich ELISA, rabbit pAb R163 capture 1:500, mAb 1:20000; antigen 13.3 ug/ml, 2.5-fold series, step 9
[3] = molecular target: T1, HPV45型衣壳蛋白L1病毒样颗粒(VLP)抗原 (HPV 45型); experiment: sandwich ELISA, rabbit pAb R163 capture 1:500, mAb 1:20000; antigen 13.3 ug/ml, 2.5-fold series, step 6
[4] = molecular target: T1, HPV45型衣壳蛋白L1病毒样颗粒(VLP)抗原 (HPV 45型); experiment: sandwich ELISA, rabbit pAb R163 capture 1:500, mAb 1:20000; antigen 13.3 ug/ml, 2.5-fold series, step 4
[5] = molecular target: T1, HPV45型衣壳蛋白L1病毒样颗粒(VLP)抗原 (HPV 45型); experiment: sandwich ELISA, rabbit pAb R163 capture 1:500, mAb 1:20000; antigen 13.3 ug/ml, 2.5-fold series, step 8

Binder	OD [1]	OD [2]	OD [3]	OD [4]	OD [5]
杂交瘤细胞株7A5(CGMCC NO:45706)分泌的鼠源单克隆抗体 (antibody, V domains shown, also called 鼠单抗7A5; 抗体7A5) VH: QPGAELVKPGASVKLSCKASGYTFTSYWMHWVKQRPGQGLEWIGEINPSNGHTNYNEKFKSKATLTVDKSSSTAYMQLSSLTSEDSAVYYCAPCYGSSYDYYAMDYWGQGTSVTVSS VL: DIVLTQSPASLAVSLGQRATISCRASQSVSTSSYSYMHWYQQKPGQPPKLLIKYASNLESGVPARFSGSGSGTDFTLNIHPVEEEDTATYYCQHSWEIPYTFGGGTKLEIK	0.379 OD and 0.358 OD	0.106 OD	0.614 OD and 0.773 OD	2.34 OD and 2.37 OD	0.175 OD and 0.189 OD
杂交瘤细胞株11G1(CGMCC NO:45707)分泌的鼠源单克隆抗体 (antibody, V domains shown, also called 鼠单抗11G1; 抗体11G1) VH: QVQLQQPGAELVKPGASVKLSCKASGYTFTSYWMHWVKRRPGQGLEWIGEINPSNGLTNYNEKFKSKGTLTVDKSSSAAFMHLSSLTSEDSAVYYCARFHGSDLYAMDYWGQGTSVTVSS VL: DIVLTQSPASLAVSLGQRATISCRASQSVSTSSYSYMHWYQQKPGQPPKLLIKYASNLESGVPARFSGSGSGTDFTLNIHPVEEEDTATYYCQHSWEIPYTFGGGTKLEIK	0.218 OD and 0.206 OD		0.364 OD and 0.447 OD	1.82 OD and 1.98 OD	0.115 OD and 0.108 OD

— patent publication CN117466995A (YIDAO BIOTECHNOLOGY SUZHOU CO LTD, dated 2024)
